Assay [1] deals with ACP-GluA1 (GluA1 tagged with the acyl carrier protein at its N-terminus) (mouse). Kind of assay: single-molecule fluorescence tracking (TIRF), colocalization durations, simultaneous two colours; living HEK293 cells, plasma membrane, TARP2-mGFP with ATTO594-labelled ACP-GluA1 or ACP-GluA2 monomers and homodimers; lifetimes corrected for photobleaching.
Assay [2] concerns the target ACP-GluA2 (GluA2 tagged with the acyl carrier protein at its N-terminus), P23819. The description is as above. Particulars: remark: other sources report otherwise.

Sequence of ACP-GluA1 (GluA1 tagged with the acyl carrier protein at its N-terminus) (mouse) (P23818 19-907): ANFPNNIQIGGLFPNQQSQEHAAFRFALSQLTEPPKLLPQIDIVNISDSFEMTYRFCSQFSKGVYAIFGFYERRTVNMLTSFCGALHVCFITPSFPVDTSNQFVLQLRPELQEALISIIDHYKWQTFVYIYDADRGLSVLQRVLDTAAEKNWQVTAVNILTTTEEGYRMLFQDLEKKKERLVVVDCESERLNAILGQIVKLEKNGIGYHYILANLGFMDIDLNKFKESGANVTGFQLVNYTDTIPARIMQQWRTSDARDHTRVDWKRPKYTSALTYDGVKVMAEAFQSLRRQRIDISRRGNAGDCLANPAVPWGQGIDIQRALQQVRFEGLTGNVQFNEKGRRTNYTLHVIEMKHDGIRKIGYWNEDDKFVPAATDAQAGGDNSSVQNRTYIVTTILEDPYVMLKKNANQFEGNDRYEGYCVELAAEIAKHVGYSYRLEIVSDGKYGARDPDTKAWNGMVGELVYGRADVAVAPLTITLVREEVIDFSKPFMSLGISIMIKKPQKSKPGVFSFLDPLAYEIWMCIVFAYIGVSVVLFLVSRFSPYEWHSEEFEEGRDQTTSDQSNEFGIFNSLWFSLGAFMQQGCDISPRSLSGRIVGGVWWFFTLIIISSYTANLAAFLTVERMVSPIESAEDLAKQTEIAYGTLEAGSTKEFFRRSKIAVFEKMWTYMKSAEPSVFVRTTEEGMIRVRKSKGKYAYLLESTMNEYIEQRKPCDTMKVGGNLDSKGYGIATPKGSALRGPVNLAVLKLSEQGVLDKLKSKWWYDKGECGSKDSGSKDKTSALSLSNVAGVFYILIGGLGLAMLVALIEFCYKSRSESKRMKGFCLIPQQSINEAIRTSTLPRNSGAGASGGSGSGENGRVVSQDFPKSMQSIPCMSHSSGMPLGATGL
Sequence of ACP-GluA2 (GluA2 tagged with the acyl carrier protein at its N-terminus), P23819 (P23819 25-883): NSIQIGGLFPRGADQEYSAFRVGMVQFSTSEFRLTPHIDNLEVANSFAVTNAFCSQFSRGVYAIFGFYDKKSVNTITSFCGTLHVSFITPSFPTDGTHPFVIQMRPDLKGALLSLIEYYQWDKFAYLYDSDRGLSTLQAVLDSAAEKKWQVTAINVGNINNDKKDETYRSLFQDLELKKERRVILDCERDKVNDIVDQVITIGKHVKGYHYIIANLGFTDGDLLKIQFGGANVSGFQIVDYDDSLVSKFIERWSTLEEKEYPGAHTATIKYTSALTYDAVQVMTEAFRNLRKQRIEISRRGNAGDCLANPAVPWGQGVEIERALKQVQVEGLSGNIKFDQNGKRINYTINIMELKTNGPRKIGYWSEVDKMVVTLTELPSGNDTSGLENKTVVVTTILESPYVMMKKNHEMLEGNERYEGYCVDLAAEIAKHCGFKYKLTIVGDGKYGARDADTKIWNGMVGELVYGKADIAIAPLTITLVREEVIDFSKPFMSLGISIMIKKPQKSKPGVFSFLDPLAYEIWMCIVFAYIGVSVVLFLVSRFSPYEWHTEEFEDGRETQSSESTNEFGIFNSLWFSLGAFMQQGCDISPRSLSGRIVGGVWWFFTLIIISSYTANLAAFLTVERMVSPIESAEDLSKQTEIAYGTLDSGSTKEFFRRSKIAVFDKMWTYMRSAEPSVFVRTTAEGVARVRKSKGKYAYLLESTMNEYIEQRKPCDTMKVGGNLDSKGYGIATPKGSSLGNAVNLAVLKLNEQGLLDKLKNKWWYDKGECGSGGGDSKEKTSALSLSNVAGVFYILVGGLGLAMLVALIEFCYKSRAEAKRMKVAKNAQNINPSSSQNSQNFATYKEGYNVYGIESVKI

B1: TARP2-mGFP (transmembrane AMPA receptor regulatory protein 2 with mGFP fused to its C-terminus) (natural protein)
chain: MGLFDRGVQMLLTTVGAFAAFSLMTIAVGTDYWLYSRGVCKTKSVSENETSKKNEEVMTHSGLWRTCCLEGNFKGLCKQIDHFPEDADYEADTAEYFLRAVRASSIFPILSVILLFMGGLCIAASEFYKTRHNIILSAGIFFVSAGLSNIIGIIVYISANAGDPSKSDSKKNSYSYGWSFYFGALSFIIAEMVGVLAVHMFIDRHKQLRATARATDYLQASAITRIPSYRYRYQRRSRSSSRSTEPSHSRDASPVGVKGFNTLPSTEISMYTLSRDPLKAATTPTATYNSDRDNSFLQVHNCIQKDSKDSLHANTANRRTTPV
In assay [1], B1 showed a lifetime of binding (to GluA1 monomers and to GluA1 homodimers) of 200 ms.

B2: TARP2-mGFP (transmembrane AMPA receptor regulatory protein 2 with mGFP fused to its C-terminus), O88602 1-323 (natural protein)
chain: B1 chain
modifications: here or on the partner: ATTO594 on the ACP tag (ATTO594-Coenzyme A with ACP-synthase)
On to B2, for which, in assay [2], the lifetime of binding (to GluA2 monomers and to GluA2 homodimers) was 200 ms.

For the origin of these results see paper PMC6868016.
